Substrate in data set [1]: C[C@H](NC(=O)CC[C@H](N)C(=O)O)C(=O)Nc1ccc([N+](=O)[O-])cc1
Put plainly: purified protein. The format is biochemical, Methanobacterium phage psiM2. The settings on record: 60 °C, pH 7.85 Bistris propane, 10 mM CaCl2, 10 mM TCEP, aerobic, substrate range below Km.

Substrate in data set [2]: C[C@H](NC(=O)CC[C@H](N)C(=O)O)C(=O)Nc1ccc([N+](=O)[O-])cc1
Put plainly: purified protein. The format is biochemical, Methanothermobacter phage psiM100. The settings on record: 60 °C, pH 7.85 Bistris propane, 10 mM CaCl2, 10 mM TCEP, aerobic, substrate range limited to about 1 x Km.

Experimental findings from publication PMC4592898, “Biochemical Characterisation of Phage Pseudomurein Endoisopeptidases PeiW and PeiP Using Synthetic Peptides” (Archaea, 2015) are described below.

B1: PeiP (Methanobacterium phage psiM2) (protein)
chain: MRSNSVNIETFKDMLKRYEDFKMKNKREPRVIFIRSGGGESIPLETFRDMVRRYNNFKDRYGREPRIVYVTPPEPPVPEVNENTPEYVSITQFKDMLSRYNRFKEVNGREPRVVFIYSGGGPSVSLETFKDMCKRYNQFLEENRREPRIVYVTPPEPPVPEEVREMRRVLGEFKTATQLYTLVSRRCKYKFYYNDQTPNREALKKMVTDGINCTDACQLFKPVIEGLGYSVRIEHVKVRCNDNKWYGHYFLRVAGKELASVSLPSERWTVWDYVSATKTGRPLGAPCCSRGIQHLGWGIVSPKHD
notes: N-terminal His-tag kept, pET151D, E. coli BL21-Rosetta 2; 338 residues and 39,537 Da with tag; monomer
Turning to B1, in data set [1], the Michaelis constant (Km) came to 4.14 ± 0.14 mM and the kcat is 1.18 ± 0.03 s⁻¹.

B2: PeiW (Methanothermobacter phage psiM100) (protein)
chain: MEVGLNEFLDMKKRYEDFKMKNKREPRYVTTKNGYKVMLPVFKDMLRRYEDFVRINGREPNYISIQPQPNGKIEIKKFRDMLRRYEDFVRINGREPNIIYLEQGKSDHVSLGTFKDMLRRYKDFVRINGREPNYISIQPQPSLKGHWTTKVIEKIGTFHDATSLYERVKKTCKYKYYYNDQVPNHVAVMRMTTSGINCTDACQLFSKVLEEMGYEVKIEHVRVKCNDGKWYGHYLLRVGGFELKDGTIWDYVSATKTGRPLGVPCCTAGFQHLGWGIVGPVYDK
notes: N-terminal His-tag kept, pET151D, E. coli BL21-Rosetta 2; 317 residues and 37,219 Da with tag; monomer
Turning to B2, in data set [2], the Michaelis-Menten constant (Km) is given as 6.25 ± 0.44 mM and the catalytic constant (kcat) amounted to 5.73 ± 0.22 s⁻¹.
